The values that follow come from publication PMC3230118.

This assay concerns the target Ub-NpuN fusion protein bearing the wild-type N-intein sequence (NpuNWT), C1A (not stated | Nostoc punctiforme) (UniProt P0CG48). As to the kind of experiment: other fluorescence titration.

On to “NpuC-SUMO fusion protein bearing the wild-type C-intein sequence (NpuCWT) (domain or fragment)”, for which the Kd (in general, a measure of binding affinity in units of concentration) amounted to 2.9 nM.
